We go through 62 molecules from patent US20170298096A1 (CANIMGUIDE THERAPEUTICS, published 2017).

First the molecules themselves.
T1: His-tagged P3028 peptide (PGE73) (human)
T1 construct: also called His-tag-P3028; not shown: His-tag
T1 peptide: VFDEFKPLVEEPQNLIK

No end group written: not given here. Where only a bound is given, the exact number is not on record here.

In one assay the target is T1, His-tagged P3028 peptide (PGE73). Nature of the assay: PEPSCAN ELISA; peptide on card, His-tagged P3028 in solution. In general terms: In an ELISA, binding on a coated surface is turned into a signal by an enzyme label.
Procedure: (§1) After washing, the peroxidase substrate 2,2′-azine-di-3-ethylbenzthiazoline sulfonate (ABTS) and 2 μL of 3% H2O2 were added. The binding capacity of the mAb was measured as a color development at 405 nm (optical density, OD405). The color development was quantified with a charge-coupled device (CCD)—camera and an image processing system.
(§2) The OD405-values obtained by a CCD-camera was considered as raw data values (“rampo values,” “rampo units,” or “rampo scores”). […] First the CCD-camera made a picture of the card before peroxidase coloring and then again a picture after the peroxidase coloring. […] These values were copied into an excel file and labeled as a raw data file. One follow-up manipulation was allowed. Sometimes a well can contain an air-bubble resulting in a false-positive value. If manual inspection of the cards detect an air-bubble the value are set to 0 for that well.
Consider KKLDTFFVKDSLFTER (P28R variant on PEPSCAN card) [SEQ ID NO: 578], for which the “RAMPO Score” value came to 102 rampo units.

Regarding KKLDTFFVKESLFTER (P28R variant on PEPSCAN card) [SEQ ID NO: 582], the “RAMPO Score” value amounted to 81 rampo units. Turning to KKLDTFFVKLSDFTER (P28R variant on PEPSCAN card) [SEQ ID NO: 580], the “RAMPO Score” value was 89 rampo units.

Regarding KKLDTFFVKLSEFTER (P28R variant on PEPSCAN card) [SEQ ID NO: 581], the “RAMPO Score” value turned out to be 82 rampo units. On to KKLDTFFVKLSLFDER (P28R variant on PEPSCAN card) [SEQ ID NO: 567], for which the “RAMPO Score” value is 159 rampo units.

As to KKLDTFFVKLSLFEER (P28R variant on PEPSCAN card) [SEQ ID NO: 576], the “RAMPO Score” value was found to be 110 rampo units.

The next assay has as its target Artificial Cell Surface (ACS): biotinylated cell surface proteins from mononuclear cells coupled to streptavidin-sepharose. Nature of the assay: adsorption on ACS column, MALDI-TOF MS.
As to YLSVVLNQLCVLHEKTPVSDRVTKCCCTESLVNRRPFSALEV [Asp-N-generated albumin fragment SEQ ID NO: 230], the Percent Absorbed worked out at 37%. Take AAFTECCQAADK [trypsin-generated albumin fragment SEQ ID NO: 205 …]: the Percent Absorbed came to 29%. YLYEIAR [trypsin-generated albumin fragment SEQ ID NO: 203 YLYEIAR] had a Percent Absorbed of 34%. DKLCTVATLRETYGEM [Asp-N-generated albumin fragment SEQ ID NO: 222] registered a Percent Absorbed of 65%. On the same count and under the same terms, next, DRVTKCCTESLVNRRPCFSALEV [Asp-N-generated albumin fragment SEQ ID NO: 219]: 87%. DDNPNLPR [trypsin-generated albumin fragment SEQ ID NO: 216 DDNPNLPR] yielded a Percent Absorbed of 1%. As to ICTLSEKERQIKKQTALVELVKHKPKATKEQLKAVM [Asp-N-generated albumin fragment SEQ ID NO: 225], the Percent Absorbed was 100%.

CCTESLVNR [trypsin-generated albumin fragment SEQ ID NO: 206 …] came in with a Percent Absorbed of 26%. The same measure, in the same setting: the same measure for DETYVPKEFNAETFTHA [Asp-N-generated albumin fragment SEQ ID NO: 220]: 86%; for LAKYICENQDSISSKLKECCEKPLLEKHCIAEVEN [Asp-N-generated albumin fragment SEQ ID NO: 226]: 100%; for DHVKLVNEVTEFAKTCVA [Asp-N-generated albumin fragment SEQ ID NO: 217]: 100%.

On to LKECCEKPLLEK [trypsin-generated albumin fragment SEQ ID NO: 201 …], for which the Percent Absorbed was 36%. Molecule VHTECCHGDLLECADDR [trypsin-generated albumin fragment SEQ ID NO: 212 …] came in with a Percent Absorbed of 13%. On the same count and under the same terms, next, KYLYEIAR [trypsin-generated albumin fragment SEQ ID NO: 194 KYLYEIAR]: 71%.

Take LCTVATLR [trypsin-generated albumin fragment SEQ ID NO: 202 LCTVATLR]: the Percent Absorbed is 35%. RPCFSALEVDETYVPK [trypsin-generated albumin fragment SEQ ID NO: 198 …]: the Percent Absorbed stood at 42%. Same read-out and setting: next, YSVVLLLRLAKTYETTLEKCCAAADPHECYAKVF [Asp-N-generated albumin fragment SEQ ID NO: 223]: 100%; VPQVSTPTLVEVSR [trypsin-generated albumin fragment SEQ ID NO: 197 …]: 59%. In turn, QEPERNECFLQHK (not fully specified) [trypsin-generated albumin fragment SEQ ID NO: 211 …] showed a Percent Absorbed of 18%. Still for that read-out and setting: next, LGEENFKALVLIAFAQYLQQCPFEDHVKLVNEVTEFAKTCVA [Asp-N-generated albumin fragment SEQ ID NO: 228]: 100%. The same measure, in the same setting: next, AVMDDFAAFVEK [trypsin-generated albumin fragment SEQ ID NO: 208 …]: 23%.

Consider CCAAADPHECYAK [trypsin-generated albumin fragment SEQ ID NO: 204 …], for which the Percent Absorbed came out at 32%. On the same count and under the same terms, next, LDELRDEGK [trypsin-generated albumin fragment SEQ ID NO: 215 …]: 2%.

As to SLHTLFGDK [trypsin-generated albumin fragment SEQ ID NO: 200 …], the Percent Absorbed was 36%.

Molecule DDKETCFAEEGKKLVAASQAALGL [Asp-N-generated albumin fragment SEQ ID NO: 218] registered a Percent Absorbed of 100%. DSISSKLKECCEKPLLEKSHCIAEVEN [Asp-N-generated albumin fragment SEQ ID NO: 221] registered a Percent Absorbed of 65%. On the same count and under the same terms, the same measure for KLCTVATLRETYGEMADCCAKQEPERNECFLQHK [Asp-N-generated albumin fragment SEQ ID NO: 224]: 100%; for QEPERNECFLQHK (not fully specified) [trypsin-generated albumin fragment SEQ ID NO: 207 …]: 25%; for VFDEFKPLVEEPQNLIK [trypsin-generated albumin fragment SEQ ID NO: 196 …]: 60%.

In turn, FQNALLVR [trypsin-generated albumin fragment SEQ ID NO: 199 FQNALLVR] registered a Percent Absorbed of 41%. In the case of VFLGMFLYEYARRHPDYSVVLLLRLAKTYETTLEKCCAAA [Asp-N-generated albumin fragment SEQ ID NO: 227], the Percent Absorbed turned out to be 100%. Still for that read-out and setting: the same measure for RVTKCCTESLVNRRPCFSALEVDETYVPKEFNAETFTFHA [Asp-N-generated albumin fragment SEQ ID NO: 229]: 100%.

On to NECFLQHK [trypsin-generated albumin fragment SEQ ID NO: 209 NECFLQHK], for which the Percent Absorbed was found to be 22%. The same measure, in the same setting: the same measure for FKDLGEENFK [trypsin-generated albumin fragment SEQ ID NO: 213 …]: 8%; for YICENQDSISSK [trypsin-generated albumin fragment SEQ ID NO: 214 …]: 3%; for KVPQVSTPTLVEVSR [trypsin-generated albumin fragment SEQ ID NO: 195 …]: 64%.

For the next assay, the target named is T1, His-tagged P3028 peptide (PGE73). Nature of the assay: PEPSCAN ELISA; peptide on card, His-tagged P3028 in solution. This is another data set of the same source.
Procedure: as §1, §2
RKLDTFFVKLSLFTER (P28R variant on PEPSCAN card) [SEQ ID NO: 3]: the RAMPO Score is > 500 rampo units. Same read-out and setting: next, KKLDTFFVKLMLFTER (P28R variant on PEPSCAN card) [SEQ ID NO: 16]: > 500 rampo units.

On to KKLDTFFVKLTLFTER (P28R variant on PEPSCAN card) [SEQ ID NO: 17], for which the RAMPO Score is > 500 rampo units.

Take KKLDTFFVKLHLFTER (P28R variant on PEPSCAN card) [SEQ ID NO: 18]: the RAMPO Score was > 500 rampo units.

As to KKLDTFMVKLSLFTER (P28R variant on PEPSCAN card) [SEQ ID NO: 9], the RAMPO Score is > 500 rampo units. Same read-out and setting: the same measure for KKLDTFLVKLSLFTER (P28R variant on PEPSCAN card) [SEQ ID NO: 13]: > 500 rampo units; for KKLDTFVVKLSLFTER (P28R variant on PEPSCAN card) [SEQ ID NO: 11]: > 500 rampo units.

Take KKLDTFSVKLSLFTER (P28R variant on PEPSCAN card) [SEQ ID NO: 10]: the RAMPO Score is > 500 rampo units. On the same count and under the same terms, the same measure for KKLDTFTVKLSLFTER (P28R variant on PEPSCAN card) [SEQ ID NO: 12]: > 500 rampo units; for KKLDTFFVKLSLQTER (P28R variant on PEPSCAN card) [SEQ ID NO: 23]: > 500 rampo units; for KKLDTFFVKLSLSTER (P28R variant on PEPSCAN card) [SEQ ID NO: 27]: > 500 rampo units. Same read-out and setting: next, KKLDTFFVKLSLHTER (P28R variant on PEPSCAN card) [SEQ ID NO: 24]: > 500 rampo units; KKLDTFFVKLSLATER (P28R variant on PEPSCAN card) [SEQ ID NO: 29]: > 500 rampo units. The same measure, in the same setting: next, KKLDTFFVKLSLNTER (P28R variant on PEPSCAN card) [SEQ ID NO: 25]: > 500 rampo units; KKLDTFFVKLSLPTER (P28R variant on PEPSCAN card) [SEQ ID NO: 26]: > 500 rampo units. Take KKLDTFFVKLSLGTER (P28R variant on PEPSCAN card) [SEQ ID NO: 28]: the RAMPO Score is > 500 rampo units. As to KKLDTFFVKLSLRTER (P28R variant on PEPSCAN card) [SEQ ID NO: 30], the RAMPO Score is > 500 rampo units.

For the molecule KKLDTAFVKLSLFTER (P28R variant on PEPSCAN card) [SEQ ID NO: 7], the RAMPO Score is > 500 rampo units. As for KKLDTVFVKLSLFTER (P28R variant on PEPSCAN card) [SEQ ID NO: 8], the RAMPO Score was > 500 rampo units. Same read-out and setting: the same measure for KKLDTFFVKLSLFNER (P28R variant on PEPSCAN card) [SEQ ID NO: 31]: > 500 rampo units.
